Patent EP4818210A1

Legend:
[1] = target: Her2/ERBB2 Protein, Human, Recombinant (ECD, His Tag) (human) (UniProt P04626); experiment: ELISA, control on human HER2 antigen
[2] = target: Her2/ERBB2 Protein, Human, Recombinant (ECD, His Tag) (human) (UniProt P04626); experiment: ELISA, E. coli lysate supernatant on human HER2 antigen

Molecule: Irrelevant
- OD450 [1]: 0.073 OD450

B1: M26H2-3134 (VHH)
VHH: QVQLVESGGGMVQPGGSLRLSCAASGITFRHYTMSWYRQAPGKERELVASITYGGVTTNYADSVKGRFTLSRDDAKTTAYLQMTGLKPEDTAVYYCHADWTAAGLNHWGQGTQVTVSS
- OD450 [2]: 1.03 OD450

B2: M26H2-2002 (VHH)
VHH: QVQLVESGGGLVQPGGSLRLSCAASGFIFGNYPMNWYRQAPGKEREFVAVITRDGGVTRYAASVKGRFTITRDNAKNTVFLQMNSLKLEDTAVYYCHNPNYNAWGQGTQVTVAS
- OD450 [2]: 0.804 OD450
